Source: patent US11833164B2, “Methods of treating Fabry disease in patients having a mutation in the GLA gene” (Amicus Therapeutics, Inc., priority 2019, dated 2023)
Where a chain is given by its changes, count along the chain named. Names and notes keep the numbering of the source.

B1: Q99E (protein)
chain: MQLRNPELHLGCALALRFLALVSWDIPGARALDNGLARTPTMGWLHWERFMCNLDCQEEPDSCISEKLFMEMAELMVSEGWKDAGYEYLCIDDCWMAPERDSEGRLQADPQRFPHGIRQLANYVHSKGLKLGIYADVGNKTCAGFPGSFGYYDIDAQTFADWGVDLLKFDGCYCDSLENLADGYKHMSLALNRTGRSIVYSCEWPLYMWPFQKPNYTEIRQYCNHWRNFADIDDSWKSIKSILDWTSFNQERIVDVAGPGGWNDPDMLVIGNFGLSWNQQVTQMALWAIMAAPLFMSNDLRHISPQAKALLQDKDVIAINQDPLGKQGYQLRQGDNFEVWERPLSGLAWAVAMINRQEIGGPRSYTIAVASLGKGVACNPACFITQLLPVKRKLGFYEWTSRLRSHINPTGTVLLQLENTMQMSLKDLL
B2: S102T (protein)
chain: B1 chain with E99Q, S102T
B3: D101H (protein)
chain: B1 chain with E99Q, D101H
B4: Q99R (protein)
chain: B1 chain with E99R
B5: G104D (protein)
chain: B1 chain with E99Q, G104D
B6: R105I (protein)
chain: B1 chain with E99Q, R105I
B7: R105K (protein)
chain: B1 chain with E99Q, R105K
B8: S102A (protein)
chain: B1 chain with E99Q, S102A
B9: R105T (protein)
chain: B1 chain with E99Q, R105T
B10: L106I (protein)
chain: B1 chain with E99Q, L106I
B11: D101G (protein)
chain: B1 chain with E99Q, D101G
B12: Q99P (protein)
chain: B1 chain with E99P
B13: G104S (protein)
chain: B1 chain with E99Q, G104S
B14: G104A (protein)
chain: B1 chain with E99Q, G104A
B15: D101E (protein)
chain: B1 chain with E99Q, D101E
B16: D101V (protein)
chain: B1 chain with E99Q, D101V
B17: L106H (protein)
chain: B1 chain with E99Q, L106H
B18: Q99L (protein)
chain: B1 chain with E99L
B19: D101A (protein)
chain: B1 chain with E99Q, D101A
B20: R105G (protein)
chain: B1 chain with E99Q, R105G
B21: S102P (protein)
chain: B1 chain with E99Q, S102P

Tested on: mutant form of α-Gal A expressed in HEK-293 cells
Experiment: HEK assay (GLP HEK / Migalastat Amenability Assay): α-Gal A activity in lysates of transiently transfected HEK-293 cells incubated with or without 10 μM migalastat
Format: cell-based, human
Details: for Absolute increase (% WT): 10 μM migalastat versus baseline; for Relative increase: 10 μM migalastat α-Gal A activity relative to baseline; for 10 μM migalastat α-Gal A activity (% WT): 5 days; for 10 μM migalastat α-Gal A activity (% WT) / Baseline α-Gal A activity (% WT): percentage of baseline wild-type α-Gal A activity; for 10 μM migalastat α-Gal A activity (% WT) / Baseline α-Gal A activity (% WT) / Baseline α-Gal A activity / 10 μM migalastat α-Gal A activity: mean ± SEM; for Baseline α-Gal A activity (% WT): absence of migalastat; for Baseline α-Gal A activity / 10 μM migalastat α-Gal A activity: lysates of HEK-293 cells transfected with the mutant form; for Baseline α-Gal A activity: incubated 5 days in the absence of migalastat; for 10 μM migalastat α-Gal A activity: incubated 5 days with 10 μM migalastat
Description: Such mutations or variants are also referred to herein as “HEK assay amenable” mutations or variants.
The α-Gal A activity is expressed as the nmoles of free 4-MU released per milligram of protein per hour (nmol/mg/hr).
In Table 7, values for the mean±standard error of the mean (SEM) were calculated. nmol/mg/hr indicates “nmoles of free 4-MU released per mg of protein per hour”. WT indicates “wild-type”. NC indicates “not calculable”. N/A indicates “not applicable”.

| Molecule | Absolute increase (% WT) | Relative increase | 10 μM migalastat α-Gal A activity (% WT) | Baseline α-Gal A activity (% WT) | Baseline α-Gal A activity | 10 μM migalastat α-Gal A activity |
| --- | --- | --- | --- | --- | --- | --- |
| B1 | 25.5 % WT | 1.4 | 95.8 ± 7.9 % WT | 70.3 ± 4.1 % WT | 25264 ± 1668 nmol/mg/h | 34635 ± 3117 nmol/mg/h |
| B2 | 20.5 % WT | 1.3 | 76.9 ± 6.2 % WT | 56.4 ± 5.2 % WT | 22123 ± 2319 nmol/mg/h | 29662 ± 2559 nmol/mg/h |
| B3 | 7.3 % WT | 1.4 | 23.8 ± 1.3 % WT | 16.5 ± 1.2 % WT | 7311 ± 556 nmol/mg/h | 10493 ± 561 nmol/mg/h |
| B4 | 21.4 % WT | 1.2 | 114.8 ± 8 % WT | 93.4 ± 6.3 % WT | 32963 ± 1757 nmol/mg/h | 41024 ± 3001 nmol/mg/h |
| B5 | 30.5 % WT | 1.8 | 69.8 ± 4.7 % WT | 39.3 ± 2.6 % WT | 14123 ± 1096 nmol/mg/h | 24797 ± 1771 nmol/mg/h |
| B6 | 8.2 % WT | 1.3 | 41.6 ± 3.1 % WT | 33.4 ± 2.2 % WT | 9696 ± 798 nmol/mg/h | 12128 ± 1157 nmol/mg/h |
| B7 | 20.5 % WT | 1.2 | 96.7 ± 5.2 % WT | 76.2 ± 2.9 % WT | 25495 ± 1793 nmol/mg/h | 31647 ± 2251 nmol/mg/h |
| B8 | 27.3 % WT | 1.6 | 69.9 ± 5.1 % WT | 42.6 ± 3.5 % WT | 17330 ± 2084 nmol/mg/h | 26790 ± 1958 nmol/mg/h |
| B9 | 15.6 % WT | 1.4 | 59.6 ± 3.9 % WT | 44 ± 2.2 % WT | 12553 ± 603 nmol/mg/h | 17062 ± 1134 nmol/mg/h |
| B10 | 23.6 % WT | 1.5 | 70 ± 4.7 % WT | 46.4 ± 2.7 % WT | 13485 ± 1014 nmol/mg/h | 20120 ± 1416 nmol/mg/h |
| B11 | 12.7 % WT | 1.3 | 54.5 ± 3.8 % WT | 41.8 ± 3.1 % WT | 18091 ± 1103 nmol/mg/h | 23672 ± 1428 nmol/mg/h |
| B12 | 19.1 % WT | 3.3 | 28 ± 2.4 % WT | 8.8 ± 1.2 % WT | 3034 ± 340 nmol/mg/h | 9885 ± 794 nmol/mg/h |
| B13 | 52.0 % WT | 3.9 | 69.8 ± 5.8 % WT | 17.9 ± 1.8 % WT | 5720 ± 464 nmol/mg/h | 22242 ± 1000 nmol/mg/h |
| B14 | 40.4 % WT | 3.7 | 55.2 ± 3 % WT | 14.8 ± 1 % WT | 5271 ± 397 nmol/mg/h | 19670 ± 1202 nmol/mg/h |
| B15 | 10.1 % WT | 1.4 | 34 ± 2.8 % WT | 23.9 ± 1.6 % WT | 10465 ± 624 nmol/mg/h | 14682 ± 993 nmol/mg/h |
| B16 | 10.2 % WT | 2.2 | 18 ± 2.6 % WT | 7.8 ± 0.5 % WT | 3368 ± 179 nmol/mg/h | 7489 ± 936 nmol/mg/h |
| B17 | 7.3 % WT | 3.5 | 10.2 ± 1.1 % WT | 3 ± 0.2 % WT | 856 ± 58 nmol/mg/h | 3009 ± 399 nmol/mg/h |
| B18 | 27.4 % WT | 1.4 | 93.4 ± 7.3 % WT | 65.9 ± 5.1 % WT | 23382 ± 1548 nmol/mg/h | 33479 ± 2746 nmol/mg/h |
| B19 | 10.2 % WT | 1.5 | 34.1 ± 3.3 % WT | 23.9 ± 3 % WT | 10144 ± 1069 nmol/mg/h | 14707 ± 1289 nmol/mg/h |
| B20 | 15.3 % WT | 1.4 | 53.3 ± 3.5 % WT | 38 ± 2.1 % WT | 16513 ± 681 nmol/mg/h | 22993 ± 1042 nmol/mg/h |
| B21 | 22.3 % WT | 1.3 | 91.7 ± 5 % WT | 69.4 ± 3.4 % WT | 27252 ± 1778 nmol/mg/h | 35885 ± 2754 nmol/mg/h |
